What was measured:
SEC = molecular target: the molecule itself; assay: SEC
[1] = molecular target: T1, biotinylated human erythrocyte β-spectrin repeats 12–17 (human, UniProt P11277 1486-2083, biotin (biotinylated; site not stated)); assay: SPR
T1 sequence (looked up): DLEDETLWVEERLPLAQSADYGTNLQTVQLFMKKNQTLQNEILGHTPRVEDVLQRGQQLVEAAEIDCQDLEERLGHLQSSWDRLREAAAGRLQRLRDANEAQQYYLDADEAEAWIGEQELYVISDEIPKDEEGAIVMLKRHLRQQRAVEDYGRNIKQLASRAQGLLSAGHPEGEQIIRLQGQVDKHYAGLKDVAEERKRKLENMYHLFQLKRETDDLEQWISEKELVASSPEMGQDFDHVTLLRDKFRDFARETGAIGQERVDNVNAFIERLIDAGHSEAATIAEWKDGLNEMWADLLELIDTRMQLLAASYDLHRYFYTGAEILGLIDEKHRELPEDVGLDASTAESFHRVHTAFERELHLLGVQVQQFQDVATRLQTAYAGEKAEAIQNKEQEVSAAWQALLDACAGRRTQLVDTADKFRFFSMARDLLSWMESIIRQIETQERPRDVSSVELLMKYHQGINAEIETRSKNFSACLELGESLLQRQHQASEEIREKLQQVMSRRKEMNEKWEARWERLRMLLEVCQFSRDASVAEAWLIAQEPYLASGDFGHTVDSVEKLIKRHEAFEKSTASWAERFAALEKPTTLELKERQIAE

B1: Ankyrin-R Death domain (DD), residues 1394–1497 (domain or fragment, human, UniProt P16157 1394-1497, looked up)
chain: PGSLSGTEQAEMKMAVISEHLGLSWAELARELQFSVEDINRIRVENPNSLLEQSVALLNLWVIREGQNANMENLYTALQSIDRGEIVNMLEGSGRQSRNLKPDR
Q: How did the “stoichiometry N” value (SEC) turn out when B1 was run?
A: 2

B2: ZU5A-ZU5B fragment of human erythrocyte ankyrin (ankyrin-R), residues 911–1233 (domain or fragment, UniProt P16157 911-1233, looked up)
chain: TGFLVSFMVDARGGSMRGSRHNGLRVVIPPRTCAAPTRITCRLVKPQKLSTPPPLAEEEGLASRIIALGPTGAQFLSPVIVEIPHFASHGRGDRELVVLRSENGSVWKEHRSRYGESYLDQILNGMDEELGSLEELEKKRVCRIITTDFPLYFVIMSRLCQDYDTIGPEGGSLKSKLVPLVQATFPENAVTKRVKLALQAQPVPDELVTKLLGNQATFSPIVTVEPRRRKFHRPIGLRIPLPPSWTDNPRDSGEGDTTSLRLLCSVIGGTDQAQWEDITGTTKLVYANECANFTTNVSARFWLSDCPRTAEAVNFATLLYKEL
Q: Which Kd [1] does the source give for B2 here?
A: 8.3 nM
